This is an account of results in article PMC2191588.

The target of this assay is TCR beta proteins on normal splenic CD4+ T cells (mouse (endogenous in splenic CD4+ T cells)). The experiment in a line: flow cytometry on cells. On the technique in general: A flow cytometer gives signals particle by particle.

In turn, “CD3 epsilon (from UniProt P22646 22-189) (natural protein)” displayed a stoichiometry N (CD3e per TCR beta) of 2.
